Key:
LRP6E1E2 = molecular target: T1, LRP6E1E2 (UniProt O75581 20-630); assay: BLI (Octet), FIG. 11B
T1 construct: domain: E1E2; also called LRP6 E1E2 domains
T1 sequence (looked up): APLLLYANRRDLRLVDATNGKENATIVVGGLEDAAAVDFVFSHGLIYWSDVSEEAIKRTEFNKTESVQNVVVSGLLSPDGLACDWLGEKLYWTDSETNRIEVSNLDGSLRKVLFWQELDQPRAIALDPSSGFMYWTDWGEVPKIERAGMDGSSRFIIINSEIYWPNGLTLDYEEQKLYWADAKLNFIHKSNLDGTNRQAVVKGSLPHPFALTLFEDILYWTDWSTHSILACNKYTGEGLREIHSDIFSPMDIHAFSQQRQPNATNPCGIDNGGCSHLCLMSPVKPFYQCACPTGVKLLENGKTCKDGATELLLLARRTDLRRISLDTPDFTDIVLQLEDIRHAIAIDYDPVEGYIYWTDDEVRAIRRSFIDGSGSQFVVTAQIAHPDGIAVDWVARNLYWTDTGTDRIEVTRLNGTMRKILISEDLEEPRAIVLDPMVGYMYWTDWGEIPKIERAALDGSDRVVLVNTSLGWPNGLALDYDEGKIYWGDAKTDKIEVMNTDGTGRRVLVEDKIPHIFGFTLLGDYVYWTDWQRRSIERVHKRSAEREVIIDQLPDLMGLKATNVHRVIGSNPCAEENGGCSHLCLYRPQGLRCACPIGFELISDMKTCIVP

FZD5 = molecular target: T2, FZD5 (UniProt Q13467 28-150, limits assumed); assay: column 'Specificity (Clone name)' of the component table; method not given there
T2 construct: also called Frizzled 5
T2 sequence (looked up): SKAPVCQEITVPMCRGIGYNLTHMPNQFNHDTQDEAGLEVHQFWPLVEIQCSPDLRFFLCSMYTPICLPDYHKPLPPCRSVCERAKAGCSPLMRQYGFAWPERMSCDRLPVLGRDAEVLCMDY

FZD7 = FZD7 (UniProt O75084 44-163); assay: as above

B1: L1:15:F1:Fc (bispecific antibody)
chain: DVKLVESGGGLVKLGGSLRLSCAASGFSFSTSYMSWVRQTPEKRLELVAAINLNGGSTYYSDTVKGRFTISRDNAKNTLYLQMSSLKSEDTAFYYCASELAGYGTPFAYWGQGTLVTVSAGSAASGSSGGSSSGADIVLTQSPATLSVTPGDSVSLSCKASQSISYNLHWYQQKSHESPRLLIKYTSQSISGIPSRFSGSGSGTDFTLTINNVETEDFGMYFCQQSNSWPLTFGAGTKLEVKGSGSGGSGSGGSSGGEVQLVESGGGLVQPGGSLRLSCAASGFTFSHYTLSWVRQAPGKGLEWVSVISGDGSYTYYADSVKGRFTISSDNSKNTLYLQMNSLRAEDTAVYYCARNFIKYVFANWGQGTLVTVSSGGGGSGGGGSGGGGSDIELTQPPSVSVAPGQTARISCSGDNIGSFYVHWYQQKPGQAPVLVIYDKSNRPSGIPERFSGSNSGNTATLTISGTQAEDEADYYCQSYANTLSLVFGGGTKLTVLGSGSGDKTHTCPPCPAPEAAGGPSVFLFPPKPKDTLMISRTPEVTCVVVDVSHEDPEVKFNWYVDGVEVHNAKTKPREEQYNSTYRVVSVLTVLHQDWLNGKEYKCKVSNKALGAPIEKTISKAKGQPREPQVYTLPPSREEMTKNQVSLTCLVKGFYPSDIAVEWESNGQPENNYKTTPPVLDSDGSFFLYSKLTVDKSRWQQGNVFSCSVMHEALHNHYTQKSLSLSPGK
notes: 2:2 tandem scFv-Fc
LRP6E1E2
  binding result: binds

B2: F1:5:L1:Fc (bispecific antibody)
chain: EVQLVESGGGLVQPGGSLRLSCAASGFTFSHYTLSWVRQAPGKGLEWVSVISGDGSYTYYADSVKGRFTISSDNSKNTLYLQMNSLRAEDTAVYYCARNFIKYVFANWGQGTLVTVSSGGGGSGGGGSGGGGSDIELTQPPSVSVAPGQTARISCSGDNIGSFYVHWYQQKPGQAPVLVIYDKSNRPSGIPERFSGSNSGNTATLTISGTQAEDEADYYCQSYANTLSLVFGGGTKLTVLGSGSGDVKLVESGGGLVKLGGSLRLSCAASGFSFSTSYMSWVRQTPEKRLELVAAINLNGGSTYYSDTVKGRFTISRDNAKNTLYLQMSSLKSEDTAFYYCASELAGYGTPFAYWGQGTLVTVSAGSAASGSSGGSSSGADIVLTQSPATLSVTPGDSVSLSCKASQSISYNLHWYQQKSHESPRLLIKYTSQSISGIPSRFSGSGSGTDFTLTINNVETEDFGMYFCQQSNSWPLTFGAGTKLEVKGSGSGDKTHTCPPCPAPEAAGGPSVFLFPPKPKDTLMISRTPEVTCVVVDVSHEDPEVKFNWYVDGVEVHNAKTKPREEQYNSTYRVVSVLTVLHQDWLNGKEYKCKVSNKALGAPIEKTISKAKGQPREPQVYTLPPSREEMTKNQVSLTCLVKGFYPSDIAVEWESNGQPENNYKTTPPVLDSDGSFFLYSKLTVDKSRWQQGNVFSCSVMHEALHNHYTQKSLSLSPGK
notes: 2:2 tandem scFv-Fc
LRP6E1E2
  binding result: binds

B3: F1:10:L1:Fc (bispecific antibody)
chain: EVQLVESGGGLVQPGGSLRLSCAASGFTFSHYTLSWVRQAPGKGLEWVSVISGDGSYTYYADSVKGRFTISSDNSKNTLYLQMNSLRAEDTAVYYCARNFIKYVFANWGQGTLVTVSSGGGGSGGGGSGGGGSDIELTQPPSVSVAPGQTARISCSGDNIGSFYVHWYQQKPGQAPVLVIYDKSNRPSGIPERFSGSNSGNTATLTISGTQAEDEADYYCQSYANTLSLVFGGGTKLTVLGSGSGGSGSGDVKLVESGGGLVKLGGSLRLSCAASGFSFSTSYMSWVRQTPEKRLELVAAINLNGGSTYYSDTVKGRFTISRDNAKNTLYLQMSSLKSEDTAFYYCASELAGYGTPFAYWGQGTLVTVSAGSAASGSSGGSSSGADIVLTQSPATLSVTPGDSVSLSCKASQSISYNLHWYQQKSHESPRLLIKYTSQSISGIPSRFSGSGSGTDFTLTINNVETEDFGMYFCQQSNSWPLTFGAGTKLEVKGSGSGDKTHTCPPCPAPEAAGGPSVFLFPPKPKDTLMISRTPEVTCVVVDVSHEDPEVKFNWYVDGVEVHNAKTKPREEQYNSTYRVVSVLTVLHQDWLNGKEYKCKVSNKALGAPIEKTISKAKGQPREPQVYTLPPSREEMTKNQVSLTCLVKGFYPSDIAVEWESNGQPENNYKTTPPVLDSDGSFFLYSKLTVDKSRWQQGNVFSCSVMHEALHNHYTQKSLSLSPGK
notes: 2:2 tandem scFv-Fc
LRP6E1E2
  binding result: binds

B4: F1:15:L1:Fc (bispecific antibody)
chain: EVQLVESGGGLVQPGGSLRLSCAASGFTFSHYTLSWVRQAPGKGLEWVSVISGDGSYTYYADSVKGRFTISSDNSKNTLYLQMNSLRAEDTAVYYCARNFIKYVFANWGQGTLVTVSSGGGGSGGGGSGGGGSDIELTQPPSVSVAPGQTARISCSGDNIGSFYVHWYQQKPGQAPVLVIYDKSNRPSGIPERFSGSNSGNTATLTISGTQAEDEADYYCQSYANTLSLVFGGGTKLTVLGSGSGGSGSGGSSGGDVKLVESGGGLVKLGGSLRLSCAASGFSFSTSYMSWVRQTPEKRLELVAAINLNGGSTYYSDTVKGRFTISRDNAKNTLYLQMSSLKSEDTAFYYCASELAGYGTPFAYWGQGTLVTVSAGSAASGSSGGSSSGADIVLTQSPATLSVTPGDSVSLSCKASQSISYNLHWYQQKSHESPRLLIKYTSQSISGIPSRFSGSGSGTDFTLTINNVETEDFGMYFCQQSNSWPLTFGAGTKLEVKGSGSGDKTHTCPPCPAPEAAGGPSVFLFPPKPKDTLMISRTPEVTCVVVDVSHEDPEVKFNWYVDGVEVHNAKTKPREEQYNSTYRVVSVLTVLHQDWLNGKEYKCKVSNKALGAPIEKTISKAKGQPREPQVYTLPPSREEMTKNQVSLTCLVKGFYPSDIAVEWESNGQPENNYKTTPPVLDSDGSFFLYSKLTVDKSRWQQGNVFSCSVMHEALHNHYTQKSLSLSPGK
notes: 2:2 tandem scFv-Fc
LRP6E1E2
  binding result: binds

B5: F1: antiFZD1, 2, 7, 5, 8 (18R5) scFv (scFv)
scFv: EVQLVESGGGLVQPGGSLRLSCAASGFTFSHYTLSWVRQAPGKGLEWVSVISGDGSYTYYADSVKGRFTISSDNSKNTLYLQMNSLRAEDTAVYYCARNFIKYVFANWGQGTLVTVSSGGGGSGGGGSGGGGSDIELTQPPSVSVAPGQTARISCSGDNIGSFYVHWYQQKPGQAPVLVIYDKSNRPSGIPERFSGSNSGNTATLTISGTQAEDEADYYCQSYANTLSLVFGGGTKLTVL
FZD5
  binding result: binds
FZD7
  binding result: binds

B6: F2: antiFZD1, 2, 7 (R2H1) scFv (scFv)
scFv: EVQLVESGGGLVQPGGSLRLSCAASGFNISSSYIHWVRQAPGKGLEWVAYIYSSYGSTYYADSVKGRFTISADTSKNTAYLQMNSLRAEDTAVYYCARASWYALDYWGQGTLVTVSSGSAASGSSGGSSSGADIQMTQSPSSLSASVGDRVTITCRASQSVSSAVAWYQQKPGKAPKLLIYSASSLYSGVPSRFSGSRSGTDFTLTISSLQPEDFATYYCQQYWYGVAPITFGQGTKVEIK
FZD7
  binding result: binds

B7: F3: antiFZD5, 8 (2919) scFv (scFv)
scFv: EVQLVESGGGLVQPGGSLRLSCAASGFNISYSYIHWVRQAPGKGLEWVASIYSSSGSTSYADSVKGRFTISADTSKNTAYLQMNSLRAEDTAVYYCARGAIDYWGQGTLVTVSSGGGGSGGGGSGGGGSDIQMTQSPSSLSASVGDRVTITCRASQSVSSAVAWYQQKPGKAPKLLIYSASSLYSGVPSRFSGSRSGTDFTLTISSLQPEDFATYYCQQWYSSGHVLITFGQGTKVEIK
FZD5
  binding result: binds

B8: L1:5:F1:Fc (bispecific antibody)
chain: DVKLVESGGGLVKLGGSLRLSCAASGFSFSTSYMSWVRQTPEKRLELVAAINLNGGSTYYSDTVKGRFTISRDNAKNTLYLQMSSLKSEDTAFYYCASELAGYGTPFAYWGQGTLVTVSAGSAASGSSGGSSSGADIVLTQSPATLSVTPGDSVSLSCKASQSISYNLHWYQQKSHESPRLLIKYTSQSISGIPSRFSGSGSGTDFTLTINNVETEDFGMYFCQQSNSWPLTFGAGTKLEVKGSGSGEVQLVESGGGLVQPGGSLRLSCAASGFTFSHYTLSWVRQAPGKGLEWVSVISGDGSYTYYADSVKGRFTISSDNSKNTLYLQMNSLRAEDTAVYYCARNFIKYVFANWGQGTLVTVSSGGGGSGGGGSGGGGSDIELTQPPSVSVAPGQTARISCSGDNIGSFYVHWYQQKPGQAPVLVIYDKSNRPSGIPERFSGSNSGNTATLTISGTQAEDEADYYCQSYANTLSLVFGGGTKLTVLGSGSGDKTHTCPPCPAPEAAGGPSVFLFPPKPKDTLMISRTPEVTCVVVDVSHEDPEVKFNWYVDGVEVHNAKTKPREEQYNSTYRVVSVLTVLHQDWLNGKEYKCKVSNKALGAPIEKTISKAKGQPREPQVYTLPPSREEMTKNQVSLTCLVKGFYPSDIAVEWESNGQPENNYKTTPPVLDSDGSFFLYSKLTVDKSRWQQGNVFSCSVMHEALHNHYTQKSLSLSPGK
LRP6E1E2
  binding result: binds

B9: L1:10:F1:Fc (bispecific antibody)
chain: DVKLVESGGGLVKLGGSLRLSCAASGFSFSTSYMSWVRQTPEKRLELVAAINLNGGSTYYSDTVKGRFTISRDNAKNTLYLQMSSLKSEDTAFYYCASELAGYGTPFAYWGQGTLVTVSAGSAASGSSGGSSSGADIVLTQSPATLSVTPGDSVSLSCKASQSISYNLHWYQQKSHESPRLLIKYTSQSISGIPSRFSGSGSGTDFTLTINNVETEDFGMYFCQQSNSWPLTFGAGTKLEVKGSGSGGSGSGEVQLVESGGGLVQPGGSLRLSCAASGFTFSHYTLSWVRQAPGKGLEWVSVISGDGSYTYYADSVKGRFTISSDNSKNTLYLQMNSLRAEDTAVYYCARNFIKYVFANWGQGTLVTVSSGGGGSGGGGSGGGGSDIELTQPPSVSVAPGQTARISCSGDNIGSFYVHWYQQKPGQAPVLVIYDKSNRPSGIPERFSGSNSGNTATLTISGTQAEDEADYYCQSYANTLSLVFGGGTKLTVLGSGSGDKTHTCPPCPAPEAAGGPSVFLFPPKPKDTLMISRTPEVTCVVVDVSHEDPEVKFNWYVDGVEVHNAKTKPREEQYNSTYRVVSVLTVLHQDWLNGKEYKCKVSNKALGAPIEKTISKAKGQPREPQVYTLPPSREEMTKNQVSLTCLVKGFYPSDIAVEWESNGQPENNYKTTPPVLDSDGSFFLYSKLTVDKSRWQQGNVFSCSVMHEALHNHYTQKSLSLSPGK
notes: 2:2 tandem scFv-Fc
LRP6E1E2
  binding result: binds
